How the values were obtained:
[1] = target: T1, mouse MET-Fc (R&D Systems) (mouse, UniProt P16056 25-929, limits assumed); assay: competition ELISA, mMET-Fc in solid phase, competitor 0.3 nM biotinylated mHGF
T1 construct: bought chimeric protein; also called mMET; not shown: Fc part
Experimental: (§1) To investigate along this line, we tested the competition between mAbs and HGF by ELISA. Recombinant human and mouse HGF (R&D Systems) were biotinylated at the N-terminus using NHS-LC-biotin (Thermo Scientific). MET-Fc protein, either human or mouse (R&D Systems), was immobilized in solid phase and then exposed to 0.3 nM biotinylated HGF, either human or mouse, in the presence of increasing concentrations of antibodies (0-120 nM).
(§2) A MET-Fc chimeric protein (either human or mouse) was immobilized in solid phase and exposed to a fixed concentration of biotinylated HGF (either human or mouse), in the presence of increasing concentrations of antibodies. […] Antibody-HGF competition is expressed as IC₅₀ (the concentration that achieves 50% competition) and IMAX (the maximum % competition reached at saturation).

[2] = target: T2, native mouse MET on living cells (mouse, UniProt P16056 25-1379); assay: flow cytometry, MLP29 cells
T2 construct: whole, on cells; also called Mouse cells (MLP29); mouse epithelial cells expressing MET
Experimental: (§3) We also analysed whether chimeric anti-MET antibodies bound to native human and mouse MET in living cells. […] Antibody binding to cells was analysed by flow cytometry using phycoerythrin-conjugated anti-human IgG1 antibodies (eBioscience) and a CyAn ADP analyser (Beckman Coulter). As a positive control for human MET binding, we used a commercial mouse anti-human MET antibody (R&D Systems) and phycoerythrin-conjugated anti-mouse IgG1 antibodies (eBioscience).
(§4) As a positive control for mouse MET binding we used a commercial goat anti-mouse MET antibody (R&D Systems) and phycoerythrin-conjugated anti-goat IgG1 antibodies (eBioscience). […] Consistent with the data obtained in ELISA, maximal binding (EMAX) varied depending on antibody, but was similar in human and mouse cells.

[3] = target: human MET ECD mutant E (mutations 2, 3, 4) (human) (UniProt P08581); assay: ELISA, MET ECD in solid phase, mAb 0-50 nM
[4] = target: human MET ECD mutant H (mutations 2, 4) (human) (UniProt P08581); assay: ELISA, MET ECD in solid phase, mAb 0-50 nM
[5] = target: human MET ECD mutant A (mutations 1, 2, 3) (human) (UniProt P08581); assay: ELISA, MET ECD in solid phase, mAb 0-50 nM
[6] = target: human MET ECD mutant D (mutations 1, 2) (human) (UniProt P08581); assay: ELISA, MET ECD in solid phase, mAb 0-50 nM
[7] = target: T2, native mouse MET on living cells; assay: cell-based or functional assay
[8] = target: T3, native human MET on living cells (human, UniProt P08581 25-1390); assay: cell-based or functional assay
T3 sequence (P08581 25-1390): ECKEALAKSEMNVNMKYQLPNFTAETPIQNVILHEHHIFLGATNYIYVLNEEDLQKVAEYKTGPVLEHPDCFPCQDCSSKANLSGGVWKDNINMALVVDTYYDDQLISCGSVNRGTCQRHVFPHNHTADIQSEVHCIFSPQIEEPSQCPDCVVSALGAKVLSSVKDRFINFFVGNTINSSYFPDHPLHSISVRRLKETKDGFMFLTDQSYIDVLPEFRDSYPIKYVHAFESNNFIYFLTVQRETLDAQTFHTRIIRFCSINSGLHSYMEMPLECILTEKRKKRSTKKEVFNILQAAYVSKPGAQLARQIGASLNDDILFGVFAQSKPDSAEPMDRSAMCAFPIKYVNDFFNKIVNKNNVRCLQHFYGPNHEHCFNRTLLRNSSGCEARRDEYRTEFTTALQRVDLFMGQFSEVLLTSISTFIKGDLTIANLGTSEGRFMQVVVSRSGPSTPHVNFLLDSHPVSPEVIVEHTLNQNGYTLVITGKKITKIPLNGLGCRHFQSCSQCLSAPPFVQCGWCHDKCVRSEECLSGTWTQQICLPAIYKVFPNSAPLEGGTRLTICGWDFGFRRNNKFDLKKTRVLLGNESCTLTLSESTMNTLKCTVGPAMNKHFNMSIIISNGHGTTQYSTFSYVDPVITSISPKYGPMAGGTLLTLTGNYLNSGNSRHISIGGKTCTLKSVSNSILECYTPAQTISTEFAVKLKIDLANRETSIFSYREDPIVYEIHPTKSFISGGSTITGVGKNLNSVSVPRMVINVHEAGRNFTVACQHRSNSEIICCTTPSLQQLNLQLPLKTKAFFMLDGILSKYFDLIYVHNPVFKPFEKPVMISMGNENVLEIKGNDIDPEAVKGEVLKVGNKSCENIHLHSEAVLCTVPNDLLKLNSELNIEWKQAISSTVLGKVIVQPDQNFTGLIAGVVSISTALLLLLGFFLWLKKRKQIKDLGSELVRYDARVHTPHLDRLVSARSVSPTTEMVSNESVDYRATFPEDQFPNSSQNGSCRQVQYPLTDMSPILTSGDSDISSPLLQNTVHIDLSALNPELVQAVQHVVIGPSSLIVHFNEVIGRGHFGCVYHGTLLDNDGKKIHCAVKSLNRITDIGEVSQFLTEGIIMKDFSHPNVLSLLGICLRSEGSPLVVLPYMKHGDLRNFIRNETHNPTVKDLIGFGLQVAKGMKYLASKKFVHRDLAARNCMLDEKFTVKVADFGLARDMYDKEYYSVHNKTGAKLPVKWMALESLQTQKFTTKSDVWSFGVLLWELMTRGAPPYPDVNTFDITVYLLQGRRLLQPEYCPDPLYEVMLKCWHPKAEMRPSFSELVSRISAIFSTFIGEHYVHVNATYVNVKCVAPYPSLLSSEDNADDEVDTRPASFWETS

mouse MET ECD = target: T4, mouse MET ECD (mouse, UniProt P16056 25-931); assay: ELISA, MET ECD in solid phase, mAb 0-20 nM
T4 construct: range 1-931; recombinant ECD made by the applicants; the stated range begins at residue 1; also called mMET; mMET ECD
Experimental: (§5) Production (by transient transfection of mammalian cells) and purification (by protein A affinity chromatography) of the resulting chimeric llama-human IgG1 molecules was outsourced to U-protein Express. Binding of chimeric mAbs to MET was determined by ELISA using hMET or mMET ECD in solid phase and increasing concentrations of antibodies (0-20 nM) in solution. […] Binding capacity (EMAX) varied from antibody to antibody, possibly due to partial epitope exposure in the immobilized antigen, but was similar in the human and mouse setting.

human MET ECD [9] = target: T5, human MET ECD (human, UniProt P08581 25-932); assay: ELISA, MET ECD in solid phase, mAb 0-20 nM
T5 construct: range 1-932; recombinant ECD made by the applicants; the stated range begins at residue 1, so it includes the signal peptide of the entry; also called hMET; hMET ECD
T5 sequence (P08581 25-932 limits assumed, form in doubt): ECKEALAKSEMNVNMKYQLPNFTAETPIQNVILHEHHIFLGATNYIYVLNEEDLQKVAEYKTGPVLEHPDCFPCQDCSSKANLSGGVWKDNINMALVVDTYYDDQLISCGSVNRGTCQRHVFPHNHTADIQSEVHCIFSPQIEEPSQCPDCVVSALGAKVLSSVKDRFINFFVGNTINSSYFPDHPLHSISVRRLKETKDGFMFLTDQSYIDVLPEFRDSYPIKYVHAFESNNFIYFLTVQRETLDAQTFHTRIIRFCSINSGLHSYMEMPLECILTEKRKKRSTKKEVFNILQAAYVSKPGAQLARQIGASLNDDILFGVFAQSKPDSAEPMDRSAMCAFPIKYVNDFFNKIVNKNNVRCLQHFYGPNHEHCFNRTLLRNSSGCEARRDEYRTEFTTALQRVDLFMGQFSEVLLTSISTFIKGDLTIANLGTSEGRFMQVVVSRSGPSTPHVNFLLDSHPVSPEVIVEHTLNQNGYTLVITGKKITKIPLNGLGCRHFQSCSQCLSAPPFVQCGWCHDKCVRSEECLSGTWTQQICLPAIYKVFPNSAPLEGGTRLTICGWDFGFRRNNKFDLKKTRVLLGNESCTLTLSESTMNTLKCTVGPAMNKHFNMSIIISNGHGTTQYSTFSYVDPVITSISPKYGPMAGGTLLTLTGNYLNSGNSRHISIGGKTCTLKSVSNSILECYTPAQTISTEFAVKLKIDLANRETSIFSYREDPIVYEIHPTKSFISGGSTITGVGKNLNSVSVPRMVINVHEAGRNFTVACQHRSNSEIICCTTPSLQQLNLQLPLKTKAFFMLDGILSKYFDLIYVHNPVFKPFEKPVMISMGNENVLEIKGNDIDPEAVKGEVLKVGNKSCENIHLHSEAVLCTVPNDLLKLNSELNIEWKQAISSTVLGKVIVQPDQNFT
Experimental: as §5

human MET ECD [10] = target: T5, human MET ECD; assay: ELISA, MET ECD in solid phase, mAb 0-50 nM
Experimental: Using human MET as a template, we mutagenized each of these residues in different permutations, generating a series of MET mutants that are fully human except for specific residues, which are llama. Next, we tested the affinity of selected SEMA-binding mAbs (71D6, 71C3, 71D4, 71A3, 71G2) and PSI-binding mAbs (76H10 and 71G3) for these MET mutants by ELISA. To this end, the various MET proteins were immobilized in solid phase (100 ng/well in a 96-well plate) and then exposed to increasing concentrations of antibodies (0-50 nM) solution. […] Wild-type human MET was used as positive control.
TABLE 18 The epitopes of MET responsible for agonistic antibody binding represent residues conserved among H. sapiens, M. musculus, R. norvegicus, M. fascicularis but not among the same species and L. glama. The relevance of residues conserved among human, mouse, rat, cynomolgus monkey but not llama MET for binding to agonistic mAbs was tested by ELISA. Wild-type (WT) or mutant (MT) human MET ECD was immobilized in solid phase and exposed to increasing concentrations of mAbs in solution. […] All binding values were normalized to the WT protein and are expressed as % binding (EMAX) compared to WT MET.

[11] = target: T2, native mouse MET on living cells; assay: cell-based or functional assay; remark: listed apart in the source
[12] = target: T3, native human MET on living cells; assay: cell-based or functional assay; remark: listed apart in the source
[13] = target: T2, native mouse MET on living cells; assay: cell-based or functional assay; remark: listed apart in the source
[14] = target: T3, native human MET on living cells; assay: cell-based or functional assay; remark: listed apart in the source
[15] = target: T6, human MET-Fc (R&D Systems) (human, UniProt P08581 25-932); assay: competition ELISA, hMET-Fc in solid phase, competitor 0.3 nM biotinylated hHGF
T6 construct: extracellular domain; bought chimeric protein; also called hMET; not shown: Fc portion of human IgG1
T6 sequence (P08581 25-932): as the sequence (P08581 25-932 limits assumed, form in doubt) above
Experimental: as §1, §2

[16] = target: T2, native mouse MET on living cells; assay: cell-based or functional assay; remark: listed apart in the source
[17] = target: T3, native human MET on living cells; assay: cell-based or functional assay; remark: listed apart in the source
[18] = target: T3, native human MET on living cells; assay: flow cytometry, A549 cells
Experimental: as §3, §4

B1: 71D6 chimeric llama-human IgG1 mAb (antibody, V domains shown)
VH: ELQLVESGGGLVQPGGSLRLSCAASGFTFSSYGMSWVRQAPGKGLEWVSAINSYGGSTSYADSVKGRFTISRDNAKNTLYLQMNSLKPEDTAVYYCAKEVRADLSRYNDYESYDYWGQGTQVTVSS
VL: QPVLNQPSALSVTLGQTAKITCQGGSLGARYAHWYQQKPGQAPVLVIYDDDSRPSGIPERFSGSSSGGTATLTISGAQAEDEGDYYCQSADSSGSVFGGGTHLTVL
notes: llama VH on human IgG1 CH1-CH2-CH3, llama VL on human lambda CL
- IC50 [1]: 340 pM
- IMAX [1]: 90.5%
- EC50 [2]: 383 pM
- EMAX [2]: 121 % relative to control
- % binding (EMAX) compared to WT MET [3]: 43.6 % WT MET ECD
- % binding (EMAX) compared to WT MET [4]: 38.6 % WT MET ECD
- % binding (EMAX) compared to WT MET [5]: 103 % WT MET ECD
- % binding (EMAX) compared to WT MET [6]: 128 % WT MET ECD
- phospho-MET ELISA EC50, MLP29 cells [7]: 210 pM
- phospho-MET ELISA EMAX (% HGF activity), MLP29 cells [7]: 115%
- phospho-MET ELISA EC50, A549 cells [8]: 320 pM
- phospho-MET ELISA EMAX (% HGF activity), A549 cells [8]: 102%
- EC50 (mouse MET ECD): 49 pM
- EMAX (OD450) (mouse MET ECD): 2.01 AU
- EC50 (human MET ECD [9]): 26 pM
- EMAX (OD450) (human MET ECD [9]): 2.08 AU
- % binding (EMAX) compared to WT MET (human MET ECD [10]): 100 % WT MET ECD
- branches per spheroid, MLP29 cells, 0.5 nM [11]: 32.7 branches
- branches per spheroid, MLP29 cells, 2.5 nM [11]: 39 branches
- branches per spheroid, MLP29 cells, 12.5 nM [11]: 41.3 branches
- branches per spheroid, LOC cells, 0.5 nM [12]: 29 branches
- branches per spheroid, LOC cells, 2.5 nM [12]: 29 branches
- branches per spheroid, LOC cells, 12.5 nM [12]: 32.7 branches
- scatter score 0-4, MLP29, 0.001 nM [13]: 0 score
- scatter score 0-4, MLP29, 0.004 nM [13]: 1 score
- scatter score 0-4, MLP29, 0.012 nM [13]: 2 score
- scatter score 0-4, MLP29, 0.037 nM [13]: 3 score
- scatter score 0-4, MLP29, 0.111 nM [13]: 4 score
- scatter score 0-4, MLP29, 0.333 nM [13]: 4 score
- scatter score 0-4, MLP29, 1.000 nM [13]: 4 score
- scatter score 0-4, MLP29, 3.000 nM [13]: 4 score
- scatter score 0-4, MLP29, 9.000 nM [13]: 4 score
- scatter score 0-4, HPAF-II, 0.001 nM [14]: 0 score
- scatter score 0-4, HPAF-II, 0.004 nM [14]: 1 score
- scatter score 0-4, HPAF-II, 0.012 nM [14]: 2 score
- scatter score 0-4, HPAF-II, 0.037 nM [14]: 3 score
- scatter score 0-4, HPAF-II, 0.111 nM [14]: 4 score
- scatter score 0-4, HPAF-II, 0.333 nM [14]: 4 score
- scatter score 0-4, HPAF-II, 1.000 nM [14]: 4 score
- scatter score 0-4, HPAF-II, 3.000 nM [14]: 4 score
- scatter score 0-4, HPAF-II, 9.000 nM [14]: 4 score
- IC50 [15]: 290 pM
- IMAX [15]: 98.3%
- protection from staurosporine, viability EC50, MLP29 cells [16]: 950 pM
- protection from staurosporine, viability EMAX, MLP29 cells [16]: 68.3%
- protection from staurosporine, viability EC50, MCF10A cells [17]: 1480 pM
- protection from staurosporine, viability EMAX, MCF10A cells [17]: 66.8%
- EC50 [18]: 259 pM
- EMAX [18]: 113 % relative to control

From patent US20210087281A1 (AGOMAB THERAPEUTICS, published 2021)
